Experimental data from patent publication US20240043568A1 (KEYMED BIOSCIENCES, published 2024).
Numbering of substitutions follows the chain as printed.

B1: GPC3×CD3 κλ002 (bispecific antibody, human IgG4 S228P, kappa, lambda)
light 1: DVVMTQSPLSLPVTPGEPASISCRSSQSIVHSNGNTYLEWYLKKPGQSPQLLIYKVSNRFSGVPDRFSGSGSGTDFTLKISRVEAEDVGVYFCLQVTHVPLTFGQGTKLEIKRTVAAPSVFIFPPSDEQLKSGTASVVCLLNNFYPREAKVQWKVDNALQSGNSQESVTEQDSKDSTYSLSSTLTLSKADYEKHKVYACEVTHQGLSSPVTKSFNRGEC
heavy 1: QVQLVQSGAEVKKPGSSVKVSCKASGYTFADYEIHWVREAPGQGLEWMGAIHPGSGGTAYAQKFQGRVTLTADESSTTAYMELSSLRSEDTAVYYCTRYYSFAYWGQGTLVTVSSASTKGPSVFPLAPCSRSTSESTAALGCLVKDYFPEPVTVSWNSGALTSGVHTFPAVLQSSGLYSLSSVVTVPSSSLGTKTYTCNVDHKPSNTKVDKRVESKYGPPCPPCPAPEFEGGPSVFLFPPKPKDTLMISRTPEVTCVVVDVSQEDPEVQFNWYVDGVEVHNAKTKPREEQFNSTYRVVSVLTVLHQDWLNGKEYKCKVSNKGLASSIEKTISKAKGQPREPQVCTLPPSQEEMTKNQVSLSCAVKGFYPSDIAVEWESNGQPENNYKTTPPVLDSDGSFFLVSKLTVDKSRWQEGNVFSCSVMHEALHNHYTQKSLSLSLGK
light 2: QAVVTQEPSLTVSPGGTVTLTCRSSTGAVTTSNYANWVQEKPGQAPRGLIGGTNKRAPWTPARFSGSLLGGKAALTITGAQAEDEAEYYCVLWYSNLWVFGGGTKLTVLGQPKAAPSVTLFPPSSEELQANKATLVCLISDFYPGAVTVAWKADSSPVKAGVETTTPSKQSNNKYAASSYLSLTPEQWKSHRSYSCQVTHEGSTVEKTVAPTECS
heavy 2: EVQLVESGGGLVQPGGSLRLSCAASGFTFNTYAMNWVRKAPGKGLEWVGRIRSKYNNYATYYADSVKDRFTISRDDSKNSLYLQMNSLKTEDTAVYYCVRHGNFGNSYVSWFAYWGQGTLVTVSSASTKGPSVFPLAPCSRSTSESTAALGCLVKDYFPEPVTVSWNSGALTSGVHTFPAVLQSSGLYSLSSVVTVPSSSLGTKTYTCNVDHKPSNTKVDKRVESKYGPPCPPCPAPEFEGGPSVFLFPPKPKDTLMISRTPEVTCVVVDVSQEDPEVQFNWYVDGVEVHNAKTKPREEQFNSTYRVVSVLTVLHQDWLNGKEYKCKVSNKGLASSIEKTISKAKGQPREPQVYTLPPCQEEMTKNQVSLWCLVKGFYPSDIAVEWESNGQPENNYKTTPPVLDSDGSFFLYSKLTVDKSRWQEGNVFSCSVMHEALHNHYTQKSLSLSLGK
notes: also called GPC3 x CD3 κλ002; GPC3×CD3κλ bispecific antibody
B2: GPC3×CD3 κλ003 (bispecific antibody, human IgG4 S228P, kappa, lambda)
light 1: B1 light 1 with E128K, Q129K
heavy 1: B1 heavy 1 with K145E, K211E
light 2: B1 light 2
heavy 2: B1 heavy 2
notes: also called GPC3 x CD3 κλ003; GPC3×CD3κλ bispecific antibody

Experiments:
human GPC3 on cells = target: T1, human GPC3 on cells (human, UniProt P51654 25-563); assay: flow cytometry, HepG2 cells
T1 construct: whole, on cells; One molecule is used for both CHO-hGPC3 transfectants and GPC3+ HepG2 cells; The assay field names the cell; also called CHO-hGPC3 (clone 2B10); CHO-human GPC3
Description: HepG2 cells in the logarithmic growth phase were taken, added with 200 μg/mL of murine IgG (Jackson ImmunoResearch, 115-005-03), and blocked on an ice bath for 30 min. The cells were adjusted to 5×10⁵ cells/mL with 4% calf serum and added to a 96-well U-shaped plate at 100 μl/well. The centrifugation was performed at 300 g for 5 min. The supernatant was discarded. 100 μL of gradient diluted antibody (initial concentration: 1800 nM, 3-fold dilution, 10 gradients) was added to each well, and incubated at 4° C. for 60 min. The primary antibody was washed, added with Alexa Fluro647 labeled goat anti-human IgG Fc (1:300 dilution) 50 μL/well, and incubated on ice for 20 min. After washing once, PI solution was added at 50 μL/well. Incubation was performed for 5 min before detection by flow cytometry. The GPC3×CD3κλ bispecific antibody can bind to GPC3+ tumor cell HepG2 with high affinity.

human CD3 on T cells [1] = target: T2, human CD3 on T cells (human, UniProt P07766 23-207); assay: flow cytometry, human peripheral blood CD8+ T cells
T2 construct: whole, on cells; The target is the native CD3 complex on cells; The recombinant antigen used elsewhere is the εγ heterodimer; also called CD3 on Jurkat cells; CD3 on human peripheral blood CD4+ and CD8+ T cells
Description: (§1) Fresh human peripheral blood was taken and PBMCs were isolated by Ficoll-Paque Plus (GE, 17-1440-03). The PBMCs were adjusted to 5×10⁵ cells/mL with 4% calf serum (Hyclone, SH30626.06), and added to a 96-well U-plate at 100 μL/well. The centrifuged supernatant was discarded. 100 μL of gradient diluted antibody (initial concentration: 1800 nM, 3-fold dilution, 11 gradients) was added to each well and incubated at 4° C. for 60 minutes. The secondary antibody Alexa Fluro647 labeled goat anti-human IgG Fc (1:300 dilution) was added at 50 μL/well and incubated on an ice bath for 20 min. After washing once, PI solution was added at 50 μL/well. Incubation was performed for 5 min before detection by flow cytometry (BD Celesta). The GPC3×CD3κλ bispecific antibody can bind to the human peripheral blood T cell with low affinity.

FcγRIIAH131 with His tag [2] = target: T3, FcγRIIAH131 with His tag (UniProt P12318 34-218); assay: SPR, His-tagged FcγRIIAH131 captured by anti-His antibody on the chip, antibody as analyte [row FcγRIIAH131, column GPC3×CD3 κλ002]
T3 construct: Bought protein; also called Fcγ RIIAH131 (Sino Biological #10374-H08H1)
T3 sequence (looked up): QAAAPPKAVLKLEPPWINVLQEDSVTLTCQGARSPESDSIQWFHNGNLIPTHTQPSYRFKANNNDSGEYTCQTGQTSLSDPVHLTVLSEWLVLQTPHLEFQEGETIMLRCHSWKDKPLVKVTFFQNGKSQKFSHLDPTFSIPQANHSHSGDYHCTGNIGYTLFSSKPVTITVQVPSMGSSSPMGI
Description: (§2) 50 μg/mL His-Tag antibodies were conjugated to a CMS chip through amino groups, and recombinant proteins FcγRI, FcγRIIAH131, and FcγRIIIAV158 with His tags (Sino Biological, #10256-H08H/10374-H08H1/10389-H08H1) were respectively captured for a capture time of 40 s at a flow rate of 10 μL/min. After the baseline was stable, the gradient-diluted antibody (the initial concentration of 37.5 μg/mL, 2-fold dilution) flowed through the chip at a flow rate of 30 μL/min, with a binding time of 120 s and a dissociation time of 200 s. The affinity constants were obtained by fitting them with Biacore evaluation software. It can be seen from FIG. 22 that the GPC3×CD3κλ bispecific antibody has no binding to FcγRI, FcγRIIAH131, and FcγRIIIAV158; The wild-type IgG4 control antibody can bind to FcγRI with high affinity and weakly bind to Fcγ RIIAH131.

[3] = target: recombinant cynomolgus monkey GPC3 full-length protein (cynomolgus monkey, UniProt A0A2K5VK50 24-558); assay: SPR (Biacore T200), antibody on Protein A chip, GPC3 as analyte
Description: (§3) The antibodies with a concentration of 1 μg/ml were captured on the Protein A chip (GE healthcare). Different concentrations of recombinant human or cynomolgus monkey GPC3 protein (5 μg/ml as the initial concentration, 2-fold gradient, a total of 6 concentration points) as the analyte was flowed through the chip at a flow rate of 30 μL/min, with an association time of 120 seconds, and a dissociation time of 400 seconds. The changes in the SPR signal during the association and dissociation of the protein were recorded. The kinetic constants were obtained by fitting with 1:1 binding model using Biacore T200 evaluation software.

[4] = target: T4, recombinant human GPC3 protein (human, UniProt P51654 25-563); assay: as above
T4 construct: also called human GPC3 full-length protein; recombinant GPC3 protein
Description: as §3

[5] = target: T5, FcγRIIIAV158 with His tag (UniProt P08637 17-208); assay: SPR, His-tagged FcγRIIIAV158 captured by anti-His antibody on the chip, antibody as analyte [row FcγRIIIAV158, column GPC3×CD3 κλ002]
T5 construct: Bought protein; also called FcγRIIIAV158 (Sino Biological #10389-H08H1)
Description: as §2

human CD3 on T cells [6] = target: T2, human CD3 on T cells; assay: flow cytometry, human peripheral blood CD4+ T cells
Description: as §1

FcγRIIAH131 with His tag [7] = target: T3, FcγRIIAH131 with His tag; assay: SPR, His-tagged FcγRIIAH131 captured by anti-His antibody on the chip, antibody as analyte [row FcγRIIAH131, column GPC3×CD3 κλ003]
Description: as §2

[8] = target: T5, FcγRIIIAV158 with His tag; assay: SPR, His-tagged FcγRIIIAV158 captured by anti-His antibody on the chip, antibody as analyte [row FcγRIIIAV158, column GPC3×CD3 κλ003]
Description: as §2

FcγRI with His tag = target: T6, FcγRI with His tag (UniProt P12314 16-288); assay: SPR, His-tagged FcγRI captured by anti-His antibody on the chip, antibody as analyte [row FcγRI, column GPC3×CD3 κλ003]
T6 construct: Bought protein; also called FcγRI (Sino Biological #10256-H08H)
Description: as §2

T5 sequence (P08637 17-208 F176V limits assumed): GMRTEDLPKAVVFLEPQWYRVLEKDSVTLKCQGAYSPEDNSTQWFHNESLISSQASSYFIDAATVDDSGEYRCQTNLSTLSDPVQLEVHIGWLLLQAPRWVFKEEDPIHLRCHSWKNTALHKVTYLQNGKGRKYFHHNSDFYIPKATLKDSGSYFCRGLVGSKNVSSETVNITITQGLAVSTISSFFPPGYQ
T6 sequence (P12314 16-288 limits assumed): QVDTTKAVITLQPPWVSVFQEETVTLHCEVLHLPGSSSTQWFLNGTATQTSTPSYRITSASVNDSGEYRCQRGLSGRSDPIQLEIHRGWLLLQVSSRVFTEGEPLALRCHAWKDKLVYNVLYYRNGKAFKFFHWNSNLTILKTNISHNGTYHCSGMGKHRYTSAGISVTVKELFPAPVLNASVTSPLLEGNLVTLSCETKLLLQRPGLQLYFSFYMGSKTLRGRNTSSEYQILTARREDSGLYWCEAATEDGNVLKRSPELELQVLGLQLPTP

Binder | EC50 (human GPC3 on cells) [nM] | EC50 (human CD3 on T cells [1]) [nM] | binding result (FcγRIIAH131 with His tag [2]) | Kd [3] [nM] | Kd [4] [nM] | binding result [5] | EC50 (human CD3 on T cells [6]) [nM] | binding result (FcγRIIAH131 with His tag [7]) | binding result [8] | binding result (FcγRI with His tag)
B1 | 2.1 | 65 | no binding | 1.6 | 1.35 | no binding | 65 |  |  | 
B2 | 2.5 | 69 |  | 1.91 | 2.11 |  | 56 | no binding | no binding | no binding
